Test results: article PMC6056499, “A systematic dissection of sequence elements determining β-Klotho and FGF interaction and signaling” (Scientific Reports, 2018)

Experiments:
[1] = biological target: mature human FGF21 (UniProt Q9NSA1); test: solid-phase binding assay; details: β-Klotho captured from conditioned media; parent: est. 1.0; read off a plot
[2] = biological target: human β-Klotho extracellular domain (aa1–992) fused with a 6 × His tag at the C-terminus (UniProt Q86Z14); test: AlphaScreen; details: parent: est. 1.0, read off a plot
Sequence of human β-Klotho extracellular domain (aa1–992) fused with a 6 × His tag at the C-terminus (Q86Z14 53-992): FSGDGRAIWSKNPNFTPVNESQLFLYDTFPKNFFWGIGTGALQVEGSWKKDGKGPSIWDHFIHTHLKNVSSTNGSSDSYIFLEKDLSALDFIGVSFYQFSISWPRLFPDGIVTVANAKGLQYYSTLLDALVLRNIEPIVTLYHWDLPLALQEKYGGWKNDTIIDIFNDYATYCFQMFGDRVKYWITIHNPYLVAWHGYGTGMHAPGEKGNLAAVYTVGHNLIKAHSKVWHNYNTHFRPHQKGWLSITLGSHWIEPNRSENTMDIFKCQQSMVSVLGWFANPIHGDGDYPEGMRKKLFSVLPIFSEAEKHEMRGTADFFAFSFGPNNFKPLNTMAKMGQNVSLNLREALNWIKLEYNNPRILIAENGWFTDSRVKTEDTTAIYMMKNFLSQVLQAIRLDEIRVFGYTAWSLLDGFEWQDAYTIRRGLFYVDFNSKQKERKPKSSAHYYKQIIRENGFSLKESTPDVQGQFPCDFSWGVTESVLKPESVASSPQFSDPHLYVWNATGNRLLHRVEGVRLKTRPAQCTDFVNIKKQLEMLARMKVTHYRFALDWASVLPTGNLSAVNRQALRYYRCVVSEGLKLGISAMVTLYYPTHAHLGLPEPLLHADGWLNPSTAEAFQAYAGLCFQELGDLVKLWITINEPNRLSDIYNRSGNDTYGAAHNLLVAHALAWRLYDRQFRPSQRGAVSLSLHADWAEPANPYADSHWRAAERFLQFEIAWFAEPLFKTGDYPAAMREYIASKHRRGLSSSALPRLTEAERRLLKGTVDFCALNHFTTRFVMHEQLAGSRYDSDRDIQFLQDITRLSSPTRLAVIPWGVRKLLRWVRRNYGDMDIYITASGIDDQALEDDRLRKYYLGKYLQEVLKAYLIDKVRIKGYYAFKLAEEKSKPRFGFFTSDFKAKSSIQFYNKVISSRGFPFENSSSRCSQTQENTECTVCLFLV

[3] = biological target: human β-Klotho extracellular domain (aa1–992) fused with a 6 × His tag at the C-terminus (UniProt Q86Z14); test: solid-phase binding assay; details: parent: est. 1.0; read off a plot
[4] = competition with FGF19 for β-Klotho
[5] = competition with FGF21 for β-Klotho

Sequence of FGF19 C-terminal peptide, WT FGF19^185–216 (from UniProt O95750) 186D-A (O95750 185-216, change not shown): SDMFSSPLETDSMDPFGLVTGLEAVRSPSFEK
Sequence of FGF19 C-terminal peptide, WT FGF19^185–216 (from UniProt O95750) 188F-A (O95750 185-216, change not shown): as above
Sequence of FGF19 C-terminal peptide, WT FGF19^185–216 (from UniProt O95750) 191P-A (O95750 185-216, change not shown): as above
Sequence of FGF19 C-terminal peptide, WT FGF19^185–216 (from UniProt O95750) 192L-A (O95750 185-216, change not shown): as above
Sequence of FGF19 C-terminal peptide, WT FGF19^185–216 (from UniProt O95750) 194T-A (O95750 185-216, change not shown): as above
Sequence of FGF19 C-terminal peptide, WT FGF19^185–216 (from UniProt O95750) 190S-A (O95750 185-216, change not shown): as above
Sequence of FGF19 C-terminal peptide, WT FGF19^185–216 (from UniProt O95750) 187M-A (O95750 185-216, change not shown): as above
Sequence of FGF19 C-terminal peptide, WT FGF19^185–216 (from UniProt O95750) 205G-A (O95750 185-216, change not shown): as above
Sequence of FGF19 C-terminal peptide, WT FGF19^185–216 (from UniProt O95750) 204T-A (O95750 185-216, change not shown): as above
Sequence of FGF19 C-terminal peptide, WT FGF19^185–216 (from UniProt O95750) 210R-A (O95750 185-216, change not shown): as above
Sequence of FGF19 C-terminal peptide, WT FGF19^185–216 (from UniProt O95750) 196S-A (O95750 185-216, change not shown): as above
Sequence of FGF19 C-terminal peptide, WT FGF19^185–216 (from UniProt O95750) 189S-A (O95750 185-216, change not shown): as above
Sequence of FGF19 C-terminal peptide, WT FGF19^185–216 (from UniProt O95750) 209V-A (O95750 185-216, change not shown): as above
Sequence of FGF19 C-terminal peptide, WT FGF19^185–216 (from UniProt O95750) 195D-A (O95750 185-216, change not shown): as above
Sequence of FGF19 C-terminal peptide, WT FGF19^185–216 (from UniProt O95750) 193E-A (O95750 185-216, change not shown): as above
Sequence of FGF19 C-terminal peptide, WT FGF19^185–216 (from UniProt O95750) 206L-A (O95750 185-216, change not shown): as above
Sequence of FGF19 C-terminal peptide, WT FGF19^185–216 (from UniProt O95750) 203V-A (O95750 185-216, change not shown): as above
Sequence of FGF19 C-terminal peptide, WT FGF19^185–216 (from UniProt O95750) 216K-A (O95750 185-216, change not shown): as above
Sequence of FGF19 C-terminal peptide, WT FGF19^185–216 (from UniProt O95750) 201G-A (O95750 185-216, change not shown): as above
Sequence of FGF19 C-terminal peptide, WT FGF19^185–216 (from UniProt O95750) 185S-A (O95750 185-216, change not shown): as above
Sequence of FGF19 C-terminal peptide, WT FGF19^185–216 (from UniProt O95750) 207E-A (O95750 185-216, change not shown): as above
Sequence of FGF19 C-terminal peptide, WT FGF19^185–216 (from UniProt O95750) 197M-A (O95750 185-216, change not shown): as above
Sequence of FGF19 C-terminal peptide, WT FGF19^185–216 (from UniProt O95750) 215E-A (O95750 185-216, change not shown): as above
Sequence of FGF19 C-terminal peptide, WT FGF19^185–216 (from UniProt O95750) 214F-A (O95750 185-216, change not shown): as above
Sequence of FGF19 C-terminal peptide, WT FGF19^185–216 (from UniProt O95750) 213S-A (O95750 185-216, change not shown): as above
Sequence of mature human FGF21 polypeptide fused with the human Fc fragment at the N-terminus (Fc-FGF21), wild type (from UniProt Q9NSA1) 167L-A (Q9NSA1 29-209, change not shown): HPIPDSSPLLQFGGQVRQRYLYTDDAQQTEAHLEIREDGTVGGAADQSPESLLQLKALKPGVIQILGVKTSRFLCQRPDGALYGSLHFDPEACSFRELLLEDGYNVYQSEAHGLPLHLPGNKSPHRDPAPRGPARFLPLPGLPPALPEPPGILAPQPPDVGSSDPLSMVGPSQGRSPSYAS
Sequence of mature human FGF21 polypeptide fused with the human Fc fragment at the N-terminus (Fc-FGF21), wild type (from UniProt Q9NSA1) 170L-A (Q9NSA1 29-209, change not shown): as above
Sequence of mature human FGF21 polypeptide fused with the human Fc fragment at the N-terminus (Fc-FGF21), wild type (from UniProt Q9NSA1) 183P-A (Q9NSA1 29-209, change not shown): as above
Sequence of mature human FGF21 polypeptide fused with the human Fc fragment at the N-terminus (Fc-FGF21), wild type (from UniProt Q9NSA1) 179G-A (Q9NSA1 29-209, change not shown): as above
Sequence of mature human FGF21 polypeptide fused with the human Fc fragment at the N-terminus (Fc-FGF21), wild type (from UniProt Q9NSA1) 168P-A (Q9NSA1 29-209, change not shown): as above
Sequence of mature human FGF21 polypeptide fused with the human Fc fragment at the N-terminus (Fc-FGF21), wild type (from UniProt Q9NSA1) 166P-A (Q9NSA1 29-209, change not shown): as above
Sequence of mature human FGF21 polypeptide fused with the human Fc fragment at the N-terminus (Fc-FGF21), wild type (from UniProt Q9NSA1) 202G-R (Q9NSA1 29-209, change not shown): as above
Sequence of mature human FGF21 polypeptide fused with the human Fc fragment at the N-terminus (Fc-FGF21), wild type (from UniProt Q9NSA1) 190S-R (Q9NSA1 29-209, change not shown): as above
Sequence of mature human FGF21 polypeptide fused with the human Fc fragment at the N-terminus (Fc-FGF21), wild type (from UniProt Q9NSA1) 181L-R (Q9NSA1 29-209, change not shown): as above
Sequence of mature human FGF21 polypeptide fused with the human Fc fragment at the N-terminus (Fc-FGF21), wild type (from UniProt Q9NSA1) 175P-R (Q9NSA1 29-209, change not shown): as above
Sequence of mature human FGF21 polypeptide fused with the human Fc fragment at the N-terminus (Fc-FGF21), wild type (from UniProt Q9NSA1) 187D-R (Q9NSA1 29-209, change not shown): as above
Sequence of mature human FGF21 polypeptide fused with the human Fc fragment at the N-terminus (Fc-FGF21), wild type (from UniProt Q9NSA1) 198G-R (Q9NSA1 29-209, change not shown): as above
Sequence of mature human FGF21 polypeptide fused with the human Fc fragment at the N-terminus (Fc-FGF21), wild type (from UniProt Q9NSA1) 186P-A (Q9NSA1 29-209, change not shown): as above

Substance	ratio to parent [1]	ratio to parent [2, 4]	ratio to parent [2, 5]	ratio to parent [3]
human β-Klotho extracellular domain (aa1–992) fused with a 6 × His tag at the C-terminus (from UniProt Q86Z14) 437K-A	270	–	–	–
FGF19 C-terminal peptide, WT FGF19^185–216 (from UniProt O95750) 193E-A	–	0.3	0.3	–
FGF19 C-terminal peptide, WT FGF19^185–216 (from UniProt O95750) 187M-A	–	1.2	0.9	–
human β-Klotho extracellular domain (aa1–992) fused with a 6 × His tag at the C-terminus (from UniProt Q86Z14) 389G-A	30	–	–	–
FGF19 C-terminal peptide, WT FGF19^185–216 (from UniProt O95750) 190S-A	–	2.9	1.4	–
FGF19 C-terminal peptide, WT FGF19^185–216 (from UniProt O95750) 216K-A	–	0.2	0.2	–
FGF19 C-terminal peptide, WT FGF19^185–216 (from UniProt O95750) 195D-A	–	5.5	4.5	–
FGF19 C-terminal peptide, WT FGF19^185–216 (from UniProt O95750) 205G-A	–	1.3	1.4	–
FGF19 C-terminal peptide, WT FGF19^185–216 (from UniProt O95750) 192L-A	–	11	7.5	–
FGF19 C-terminal peptide, WT FGF19^185–216 (from UniProt O95750) 203V-A	–	3.8	5.5	–
FGF19 C-terminal peptide, WT FGF19^185–216 (from UniProt O95750) 213S-A	–	90	–	–
FGF19 C-terminal peptide, WT FGF19^185–216 (from UniProt O95750) 188F-A	–	2.7	1.4	–
FGF19 C-terminal peptide, WT FGF19^185–216 (from UniProt O95750) 189S-A	–	1.7	1.3	–
FGF19 C-terminal peptide, WT FGF19^185–216 (from UniProt O95750) 204T-A	–	1.6	3.2	–
FGF19 C-terminal peptide, WT FGF19^185–216 (from UniProt O95750) 210R-A	–	1.2	1.4	–
FGF19 C-terminal peptide, WT FGF19^185–216 (from UniProt O95750) 191P-A	–	0.8	0.5	–
FGF19 C-terminal peptide, WT FGF19^185–216 (from UniProt O95750) 197M-A	–	0.8	0.3	–
FGF19 C-terminal peptide, WT FGF19^185–216 (from UniProt O95750) 214F-A	–	220	–	–
FGF19 C-terminal peptide, WT FGF19^185–216 (from UniProt O95750) 194T-A	–	2.1	1.4	–
FGF19 C-terminal peptide, WT FGF19^185–216 (from UniProt O95750) 206L-A	–	0.9	0.8	–
FGF19 C-terminal peptide, WT FGF19^185–216 (from UniProt O95750) 196S-A	–	9.8	13	–
mature human FGF21 polypeptide fused with the human Fc fragment at the N-terminus (Fc-FGF21), wild type (from UniProt Q9NSA1) 175P-A	–	–	–	0.5
mature human FGF21 polypeptide fused with the human Fc fragment at the N-terminus (Fc-FGF21), wild type (from UniProt Q9NSA1) 187D-R	–	–	–	6
mature human FGF21 polypeptide fused with the human Fc fragment at the N-terminus (Fc-FGF21), wild type (from UniProt Q9NSA1) 166P-A	–	–	–	0.6
mature human FGF21 polypeptide fused with the human Fc fragment at the N-terminus (Fc-FGF21), wild type (from UniProt Q9NSA1) 181L-R	–	–	–	1.2
FGF19 C-terminal peptide, WT FGF19^185–216 (from UniProt O95750) 207E-A	–	0.6	1.1	–

Substance	ratio to parent [1]	ratio to parent [2, 4]	ratio to parent [2, 5]	ratio to parent [3]
mature human FGF21 polypeptide fused with the human Fc fragment at the N-terminus (Fc-FGF21), wild type (from UniProt Q9NSA1) 167L-R	–	–	–	1
mature human FGF21 polypeptide fused with the human Fc fragment at the N-terminus (Fc-FGF21), wild type (from UniProt Q9NSA1) 190S-R	–	–	–	6.5
mature human FGF21 polypeptide fused with the human Fc fragment at the N-terminus (Fc-FGF21), wild type (from UniProt Q9NSA1) 203R-A	–	–	–	2
mature human FGF21 polypeptide fused with the human Fc fragment at the N-terminus (Fc-FGF21), wild type (from UniProt Q9NSA1) 195S-A	–	–	–	3
mature human FGF21 polypeptide fused with the human Fc fragment at the N-terminus (Fc-FGF21), wild type (from UniProt Q9NSA1) 172P-R	–	–	–	1.5
mature human FGF21 polypeptide fused with the human Fc fragment at the N-terminus (Fc-FGF21), wild type (from UniProt Q9NSA1) 183P-A	–	–	–	0.8
mature human FGF21 polypeptide fused with the human Fc fragment at the N-terminus (Fc-FGF21), wild type (from UniProt Q9NSA1) 174P-A	–	–	–	0.6
mature human FGF21 polypeptide fused with the human Fc fragment at the N-terminus (Fc-FGF21), wild type (from UniProt Q9NSA1) 199P-R	–	–	–	1.2
mature human FGF21 polypeptide fused with the human Fc fragment at the N-terminus (Fc-FGF21), wild type (from UniProt Q9NSA1) 202G-R	–	–	–	4.8
mature human FGF21 polypeptide fused with the human Fc fragment at the N-terminus (Fc-FGF21), wild type (from UniProt Q9NSA1) 198G-R	–	–	–	0.5
mature human FGF21 polypeptide fused with the human Fc fragment at the N-terminus (Fc-FGF21), wild type (from UniProt Q9NSA1) 166P-R	–	–	–	2.6
FGF19 C-terminal peptide, WT FGF19^185–216 (from UniProt O95750) 201G-A	–	19	20	–
mature human FGF21 polypeptide fused with the human Fc fragment at the N-terminus (Fc-FGF21), wild type (from UniProt Q9NSA1) 175P-R	–	–	–	1.4
mature human FGF21 polypeptide fused with the human Fc fragment at the N-terminus (Fc-FGF21), wild type (from UniProt Q9NSA1) 174P-R	–	–	–	1.3
FGF19 C-terminal peptide, WT FGF19^185–216 (from UniProt O95750) 215E-A	–	7	5.2	–
FGF19 C-terminal peptide, WT FGF19^185–216 (from UniProt O95750) 209V-A	–	0.6	0.6	–
mature human FGF21 polypeptide fused with the human Fc fragment at the N-terminus (Fc-FGF21), wild type (from UniProt Q9NSA1) 189G-R	–	–	–	1.2
mature human FGF21 polypeptide fused with the human Fc fragment at the N-terminus (Fc-FGF21), wild type (from UniProt Q9NSA1) 168P-A	–	–	–	0.5
mature human FGF21 polypeptide fused with the human Fc fragment at the N-terminus (Fc-FGF21), wild type (from UniProt Q9NSA1) 179G-A	–	–	–	1.3
mature human FGF21 polypeptide fused with the human Fc fragment at the N-terminus (Fc-FGF21), wild type (from UniProt Q9NSA1) 170L-A	–	–	–	1
mature human FGF21 polypeptide fused with the human Fc fragment at the N-terminus (Fc-FGF21), wild type (from UniProt Q9NSA1) 209S-A	–	–	–	0.5
mature human FGF21 polypeptide fused with the human Fc fragment at the N-terminus (Fc-FGF21), wild type (from UniProt Q9NSA1) 167L-A	–	–	–	0.4
mature human FGF21 polypeptide fused with the human Fc fragment at the N-terminus (Fc-FGF21), wild type (from UniProt Q9NSA1) 186P-A	–	–	–	12
FGF19 C-terminal peptide, WT FGF19^185–216 (from UniProt O95750) 185S-A	–	1.4	0.8	–
FGF19 C-terminal peptide, WT FGF19^185–216 (from UniProt O95750) 186D-A	–	0.8	0.7	–
